What follows are sequences tested on Escherichia coli TOP10 (assay: shrunken log2 fold change of peptide-encoding DNA abundance (4.5 h post-induction vs induction); higher = less antimicrobial activity (less host growth inhibition)). Conditions: time post-induction: 4.5 h; library: site-saturation at positions 5, 18, 19, 20.
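Further: peptides expressed intracellularly from a pBAD plasmid library in pooled LB shake-flask culture, induced with 0.3% L-arabinose, DNA abundance read by NGS, three biological replicates, DESeq2 with apeglm shrinkage.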

Sequence | shrunken log2 fold change
RRIRLRPPRLPRPRPRPHDHPRP | 0.0691
RRIRCRPPRLPRPRPRPLDCPRP | 0.0147
RRIRRRPPRLPRPRPRPWFQPRP | -0.0671
RRIRKRPPRLPRPRPRPVHDPRP | 0.0707
RRIRPRPPRLPRPRPRPRMFPRP | 0.0598
RRIRYRPPRLPRPRPRPWDEPRP | -0.999
RRIRCRPPRLPRPRPRPLIKPRP | -0.311
RRIRMRPPRLPRPRPRPKIKPRP | 0.248
RRIRKRPPRLPRPRPRPKGGPRP | 4.1
RRIRNRPPRLPRPRPRPKQHPRP | -0.253
RRIRLRPPRLPRPRPRPAPQPRP | 0.609
RRIRVRPPRLPRPRPRPHWMPRP | -0.32
RRIRVRPPRLPRPRPRPRDVPRP | -0.113
RRIRSRPPRLPRPRPRPCFNPRP | -0.828
RRIRLRPPRLPRPRPRPSDIPRP | -0.0623
RRIRPRPPRLPRPRPRPPKHPRP | 0.499
RRIRQRPPRLPRPRPRPCYPPRP | -1.5
RRIRCRPPRLPRPRPRPFCTPRP | -0.401
RRIRCRPPRLPRPRPRPFSNPRP | -0.117
RRIRFRPPRLPRPRPRPGNRPRP | 1.63
RRIRMRPPRLPRPRPRPCQSPRP | 0.288
RRIRCRPPRLPRPRPRPREVPRP | 0.415
RRIRHRPPRLPRPRPRPVNRPRP | -0.26

Sequence | shrunken log2 fold change
RRIRNRPPRLPRPRPRPIGPPRP | -0.181
RRIRRRPPRLPRPRPRPVGNPRP | -0.0457
RRIRYRPPRLPRPRPRPSQLPRP | -0.506
RRIRPRPPRLPRPRPRPRLTPRP | 0.293
RRIRIRPPRLPRPRPRPAMQPRP | 0.0843
RRIRVRPPRLPRPRPRPLLKPRP | 0.0167
RRIRYRPPRLPRPRPRPPPFPRP | 0.328
RRIRIRPPRLPRPRPRPTYGPRP | -0.548
RRIRGRPPRLPRPRPRPDIWPRP | 0.598
RRIRMRPPRLPRPRPRPKKVPRP | 0.561
RRIRKRPPRLPRPRPRPSAEPRP | 0.787
RRIRFRPPRLPRPRPRPDGCPRP | -0.0502
RRIRNRPPRLPRPRPRPRNGPRP | -0.0619
RRIRDRPPRLPRPRPRPYCKPRP | 0.0343
RRIRQRPPRLPRPRPRPWQYPRP | -0.366
RRIRRRPPRLPRPRPRPTTIPRP | -0.12
RRIRQRPPRLPRPRPRPSPEPRP | -0.0086
RRIRIRPPRLPRPRPRPMAPPRP | -0.0415
RRIRPRPPRLPRPRPRPVNGPRP | 0.0391
RRIRNRPPRLPRPRPRPCIGPRP | 0.00845
RRIRMRPPRLPRPRPRPSSTPRP | 0.858
RRIRNRPPRLPRPRPRPWPQPRP | -0.064
RRIRQRPPRLPRPRPRPPPGPRP | 0.751

Sequence | shrunken log2 fold change
RRIRPRPPRLPRPRPRPCFVPRP | -0.18
RRIRIRPPRLPRPRPRPMIEPRP | -0.0216
RRIRERPPRLPRPRPRPYLQPRP | -0.138
RRIRERPPRLPRPRPRPCCWPRP | 0.185
RRIRPRPPRLPRPRPRPHMGPRP | -0.461
RRIRCRPPRLPRPRPRPWTLPRP | -0.282
RRIRERPPRLPRPRPRPNGVPRP | -0.2
RRIRSRPPRLPRPRPRPGMAPRP | 0.0998
RRIRKRPPRLPRPRPRPWGHPRP | -0.0374
RRIRSRPPRLPRPRPRPSAEPRP | 0.567
RRIRNRPPRLPRPRPRPDACPRP | -0.0102
RRIRKRPPRLPRPRPRPQTDPRP | -0.00442
RRIRARPPRLPRPRPRPQKEPRP | -0.0202
RRIRHRPPRLPRPRPRPAMPPRP | -0.0758
RRIRIRPPRLPRPRPRPTHVPRP | -0.0979
RRIRGRPPRLPRPRPRPFTYPRP | 0.0977
RRIRTRPPRLPRPRPRPFTVPRP | -0.00127
RRIRRRPPRLPRPRPRPPTDPRP | 0.709
RRIRWRPPRLPRPRPRPGLYPRP | -0.036
RRIRIRPPRLPRPRPRPRRTPRP | -0.0386
RRIRVRPPRLPRPRPRPPCGPRP | 0.297
RRIRLRPPRLPRPRPRPVTCPRP | -0.125
RRIRDRPPRLPRPRPRPWTFPRP | -0.22

Sequence | shrunken log2 fold change
RRIRTRPPRLPRPRPRPLDLPRP | 0.0209
RRIRCRPPRLPRPRPRPQPCPRP | 0.0038
RRIRARPPRLPRPRPRPTSVPRP | 0.52
RRIRIRPPRLPRPRPRPCNQPRP | -0.297
RRIRFRPPRLPRPRPRPPMIPRP | -0.224
RRIRHRPPRLPRPRPRPVMHPRP | 0.000945
RRIRRRPPRLPRPRPRPKPMPRP | 0.687
RRIRCRPPRLPRPRPRPLDFPRP | -0.175
RRIRRRPPRLPRPRPRPESMPRP | 0.358
RRIRPRPPRLPRPRPRPLMLPRP | -0.21
RRIRYRPPRLPRPRPRPNRVPRP | -0.172
RRIRCRPPRLPRPRPRPEATPRP | 0.95
RRIRARPPRLPRPRPRPTLDPRP | 0.777
RRIRWRPPRLPRPRPRPMDWPRP | 0.482
RRIRIRPPRLPRPRPRPSLSPRP | -0.692
RRIRDRPPRLPRPRPRPNFMPRP | -0.316
RRIRQRPPRLPRPRPRPTWVPRP | 2.03
RRIRPRPPRLPRPRPRPLMYPRP | -0.318
RRIRQRPPRLPRPRPRPCSQPRP | -0.018
RRIRCRPPRLPRPRPRPQGCPRP | -0.0977
RRIRDRPPRLPRPRPRPLMLPRP | 0.116
RRIRWRPPRLPRPRPRPFAFPRP | -0.195

Source: the supplement of paper PMC9112550, “Optimization of the antimicrobial peptide Bac7 by deep mutational scanning” (BMC Biology, 2022)
